Reference: patent US12304939B2, “EGFR and C-met fibronectin type III domain binding molecules” (Janssen Biotech, Inc., priority 2012, dated 2025)

Legend:
NCI-H322 cells = test: NCI-H322 growth assay; type: cell-based, human; settings: 120 hours, CellTiter-Glo
Protocol: (§1) Inhibition of EGFR-dependent cell growth was assessed by measuring viability of the EGFR over-expressing human tumor cell lines, NCI-H292 and NCI-H322 (American Type Culture Collection, cat. #CRL-1848 & #CRL-5806, respectively), following
(§2) exposure to EGFR-binding FN3 domains. […] Cells were treated by addition of 5 μL/well of phosphate-buffered saline (PBS) containing a concentration range of EGFR-binding FN3 domains. Controls were treated with 5 μL/well of PBS only or 25 mM ethylenediaminetetraacetic acid in PBS. […] Viable cells were detected by addition of 75 μL/well of CellTiter-Glo® reagent (Promega), followed by mixing on a plate shaker for 2 minutes, and incubation in the dark at room temperature for a further 10 minutes. Plates were read on a SpectraMax M5 plate reader (Molecular Devices) set to luminescence mode, with a read time of 0.5 seconds/well against a blank of medium only. Data were plotted as a percentage of PBS-treated cell growth against the logarithm of FN3 domain molar concentration.

EGFR = EGFR (Homo sapiens, UniProt P00533); test: Phospho-EGFR assay: inhibition of EGF-stimulated EGFR phosphorylation (Tyr1173) in A431 cells; type: cell-based; settings: 50 ng/mL EGF
[1] = target: EGF binding to EGFR on A431 cells (Homo sapiens, UniProt P00533); test: A431 cell EGF competition assay; settings: 30 ng/mL biotinylated EGF
Protocol: To better characterize the mechanism of EGFR binding, the ability of various identified FN3 domain clones to bind EGFR in an EGF-competitive manner was measured using A431 cells and run in parallel with the A431 binding assay screen. […] Biotinylated EGF (Invitrogen, cat. #E-3477) was added to each well for a final concentration of 30 ng/mL and incubated for 10 minutes at room temperature.
Bacterial lysates containing the FN3 domains were screened in the EGF competition assay described above.
Biotinylated EGF (Invitrogen, Cat #: E-3477) was added to each well to give a final concentration of 30 ng/mL and incubated for 10 minutes at room temperature.

[2] = target: T1, recombinant EGFR extracellular domain (EGFR-Fc) (Homo sapiens, UniProt P00533); test: EGFR-Fc affinity by surface plasmon resonance (Proteon); type: binding; settings: SPR, 1:1 Langmuir fit; read-out: EGFR-Fc Affinity
T1 construct: purchased R&D Systems
Protocol: Select EGFR-binding FN3 domains were screened to identify those with slow off-rates (koff) in binding to EGFR-Fc on a ProteOn XPR-36 instrument (Bio-Rad) to facilitate selection of high affinity binders. Goat anti-human Fc IgG (R&D systems), at a concentration of 5 μg/mL, was directly immobilized via amine coupling (at pH 5.0) on all 6 ligand channels in horizontal orientation on the chip with a flow rate of 30 μL/min in PBS containing 0.005% Tween-20. The immobilization densities averaged about 1500 Response Units (RU) with less than 5% variation among different channels. EGFR-Fc was captured on the anti-human Fc IgG surface to a density around 600 RU in vertical ligand orientation. All tested FN3 domains were normalized to a concentration of 1 μM and tested for their binding in horizontal orientation. […] The dissociation phase was monitored for 10 minutes at a flow rate of 100 μL/min. […]
Binding affinity of selected EGFR-binding FN3 domains to recombinant EGFR extracellular domain was further characterized by surface Plasmon resonance methods using a Proteon Instrument (BioRad). […] The dissociation phase for all concentrations of each EGFR-binding FN3 domain was monitored at a flow rate of 100 μL/min for 30 minutes (for those with koff ˜10^−2 s^−1 from off-rate screening), or 1 hour (for those with koff ˜10^−3 s^−1 or slower). […]

NCI-H292 cells = test: NCI-H292 growth assay; type: cell-based, human; settings: 120 hours, CellTiter-Glo
Protocol: as §1, §2

EGFR on A431 cells = EGFR on A431 cells (Homo sapiens, UniProt P00533); test: A431 cell binding assay; settings: purified FN3 domains

IC50 (NCI-H322 cells): 39 nM
IC50 (EGFR): 295 nM
IC50 [1]: 7.1 nM
Kd [2]: 2.51 nM
IC50 (NCI-H292 cells): 44 nM
EC50 (EGFR on A431 cells): 8.6 nM
B1: P54AR4-47: EGFR-binding FN3 domain, SEQ ID NO: 20 (protein)
chain: LPAPKNLVVSEVTEDSLRLSWGYNGDHFDSFLIQYQESEKVGEAINLTVPGSERSYDLTGLKPGTEYTVSIYGVHNVYKDTNMRGLPLSAEFTT
modifications: EGFR binding FN3 domain
